# Laboratory results reported in patent publication US5866538A, “Insulin preparations containing NaCl” (Novo Nordisk A/S, priority 1996, dated 1999).
# Experiments:
# [1] = Stability tests of Asp^B28 human insulin preparations in Penfill cartridges, varying phosphate and NaCl (Example IV); format: physicochemical; settings: 19.6 μg Zn/100 U insulin, pH 7.4
# Method: 375.7 mg Asp^B28 human insulin was dissolved in water by adding 1.6 ml 0.2N HCl and 49 μl zinc chloride solution (40 mg Zn/ml). 20 g of a solution containing 80 mg/g glycerol, 7.50 mg/g phenol and 8.60 mg/g m-cresol was added to the solution while mixing. Varying amounts (3.71 g to 6.71 g) of a solution containing 24.0 mg/g disodium phosphate dihydrate and 11 μl/g 2N sodium hydroxide was added while mixing, finally varying amounts (0 g to 3.65 g) of a solution containing 40 mg/g sodium chloride were added while mixing so as to obtain a sodium chloride concentration mentioned in table 6. pH was adjusted to pH 7.40±0.05 and water added up to 100 ml. The Asp^B28 Human insulin preparations were introduced into Penfill® cartridges and subjected to stability tests at 25° C. and 37° C. The stability data at the two different temperatures and three different phosphate concentrations and at 19.6 μg Zn/100 U insulin and pH=7.4 are summarized in Tables 4, 5 and 6.
# [2] = Stability tests of Asp^B28 human insulin preparations in Penfill cartridges, varying NaCl (Example II); format: physicochemical; settings: phosphate 13.5 mM, 19.6 μg Zn/100 U insulin, pH 7.4
# Method: 370.4 mg AspB28 human insulin was dissolved in water by adding 1.6 ml 0.2N HCl and 49 μl zinc chloride solution (40 mg Zn/ml). 40 g of a solution containing 40 mg/ml glycerol, 3.75 mg/g phenol and 4.30 mg/g m-cresol was added to the insulin solution while mixing. 20 g of a solution containing a) 12.0 mg/g disodium phosphate dihydrate+5 μl/g 2N sodium hydroxide, b) 12.0 mg/g disodium phosphate dihydrate+5 μl/g 2N sodium hydroxide+5 mg/g sodium chloride or c) 12.0 mg/g disodium phosphate dihydrate+5 μl/g 2N sodium hydroxide+10 mg/g sodium chloride was added while mixing. pH was adjusted to pH 7.40±0.05 and water added up to 100 ml. The Asp^B28 Human insulin preparations were introduced into Penfill® cartridges and subjected to stability tests at 25° C. and 37° C. The stability data obtained at the two different temperatures and at a phosphate concentration of 13.5 mM, 19.6 μg Zn/100 U insulin and pH=7.4 are summarized in Table 2.
# [3] = 6 weeks at 37° C., NaCl added 0 mM, total Cl^- 3.8 mM, phosphate 5 mM
# [4] = 6 weeks at 37° C., NaCl added 0 mM, total Cl^- 3.8 mM, phosphate 7 mM
# [5] = 6 weeks at 37° C., NaCl added 0 mM, total Cl^- 3.8 mM, phosphate 9 mM
# [6] = 6 weeks at 37° C., NaCl added 5 mM, total Cl^- 8.8 mM, phosphate 5 mM
# [7] = 6 weeks at 37° C., NaCl added 5 mM, total Cl^- 8.8 mM, phosphate 7 mM
# [8] = 6 weeks at 37° C., NaCl added 5 mM, total Cl^- 8.8 mM, phosphate 9 mM
# [9] = 6 weeks at 37° C., NaCl added 10 mM, total Cl^- 13.8 mM, phosphate 5 mM
# [10] = 6 weeks at 37° C., NaCl added 10 mM, total Cl^- 13.8 mM, phosphate 7 mM
# [11] = 6 weeks at 37° C., NaCl added 10 mM, total Cl^- 13.8 mM, phosphate 9 mM
# [12] = 6 weeks at 37° C., NaCl added 15 mM, total Cl^- 18.8 mM, phosphate 5 mM
# [13] = 6 weeks at 37° C., NaCl added 15 mM, total Cl^- 18.8 mM, phosphate 7 mM
# [14] = 6 weeks at 37° C., NaCl added 15 mM, total Cl^- 18.8 mM, phosphate 9 mM
# [15] = 6 weeks at 37° C., NaCl added 20 mM, total Cl^- 23.8 mM, phosphate 5 mM
# [16] = 6 weeks at 37° C., NaCl added 20 mM, total Cl^- 23.8 mM, phosphate 7 mM
# [17] = 6 weeks at 37° C., NaCl added 20 mM, total Cl^- 23.8 mM, phosphate 9 mM
# [18] = 6 weeks at 37° C., NaCl added 25 mM, total Cl^- 28.8 mM, phosphate 5 mM
# [19] = 6 weeks at 37° C., NaCl added 25 mM, total Cl^- 28.8 mM, phosphate 7 mM
# [20] = 6 weeks at 37° C., NaCl added 25 mM, total Cl^- 28.8 mM, phosphate 9 mM
# [21] = 12 weeks at 25° C., NaCl added 0 mM, total Cl^- 3.8 mM, phosphate 5 mM
# [22] = 12 weeks at 25° C., NaCl added 0 mM, total Cl^- 3.8 mM, phosphate 7 mM
# [23] = 12 weeks at 25° C., NaCl added 5 mM, total Cl^- 8.8 mM, phosphate 5 mM
# [24] = 12 weeks at 25° C., NaCl added 5 mM, total Cl^- 8.8 mM, phosphate 7 mM
# [25] = 12 weeks at 25° C., NaCl added 5 mM, total Cl^- 8.8 mM, phosphate 9 mM
# [26] = 12 weeks at 25° C., NaCl added 10 mM, total Cl^- 13.8 mM, phosphate 5 mM
# [27] = 12 weeks at 25° C., NaCl added 10 mM, total Cl^- 13.8 mM, phosphate 7 mM
# [28] = 12 weeks at 25° C., NaCl added 10 mM, total Cl^- 13.8 mM, phosphate 9 mM
# [29] = 12 weeks at 25° C., NaCl added 15 mM, total Cl^- 18.8 mM, phosphate 5 mM
# [30] = 12 weeks at 25° C., NaCl added 15 mM, total Cl^- 18.8 mM, phosphate 7 mM
# [31] = 12 weeks at 25° C., NaCl added 15 mM, total Cl^- 18.8 mM, phosphate 9 mM
# [32] = 12 weeks at 25° C., NaCl added 20 mM, total Cl^- 23.8 mM, phosphate 5 mM
# [33] = 12 weeks at 25° C., NaCl added 20 mM, total Cl^- 23.8 mM, phosphate 7 mM
# [34] = 12 weeks at 25° C., NaCl added 20 mM, total Cl^- 23.8 mM, phosphate 9 mM
# [35] = 12 weeks at 25° C., NaCl added 25 mM, total Cl^- 28.8 mM, phosphate 5 mM
# [36] = 12 weeks at 25° C., NaCl added 25 mM, total Cl^- 28.8 mM, phosphate 7 mM
# [37] = 12 weeks at 25° C., NaCl added 25 mM, total Cl^- 28.8 mM, phosphate 9 mM
# [38] = 8 months at 25° C., NaCl added 0 mM, total conc. of Cl^- 4.4
# [39] = 8 months at 25° C., NaCl added 17 mM, total conc. of Cl^- 20.8
# [40] = 8 months at 25° C., NaCl added 34 mM, total conc. of Cl^- 37.8
# [41] = 8 weeks at 37° C., NaCl added 0 mM, total conc. of Cl^- 4.4
# [42] = 8 weeks at 37° C., NaCl added 17 mM, total conc. of Cl^- 20.8
# [43] = 8 weeks at 37° C., NaCl added 34 mM, total conc. of Cl^- 37.8
substance,measurement,setting,value
Asp^B28 human insulin,Asp^B28 Des-amido insulins formed,[1]; [3],4.7%
same,Di- & polymers formed,[1]; [3],1.4%
same,Asp^B28 Des-amido insulins formed,[1]; [4],4.3%
same,Di- & polymers formed,[1]; [4],1.2%
same,Asp^B28 Des-amido insulins formed,[1]; [5],4.9%
same,Di- & polymers formed,[1]; [5],1.2%
same,Asp^B28 Des-amido insulins formed,[1]; [6],3.7%
same,Di- & polymers formed,[1]; [6],1.3%
same,Asp^B28 Des-amido insulins formed,[1]; [7],3.6%
same,Di- & polymers formed,[1]; [7],1.2%
same,Asp^B28 Des-amido insulins formed,[1]; [8],4.0%
same,Di- & polymers formed,[1]; [8],1.1%
same,Asp^B28 Des-amido insulins formed,[1]; [9],3.4%
same,Di- & polymers formed,[1]; [9],1.2%
same,Asp^B28 Des-amido insulins formed,[1]; [10],3.1%
same,Di- & polymers formed,[1]; [10],1.1%
same,Asp^B28 Des-amido insulins formed,[1]; [11],3.7%
same,Di- & polymers formed,[1]; [11],1.0%
same,Asp^B28 Des-amido insulins formed,[1]; [12],3.1%
same,Di- & polymers formed,[1]; [12],1.1%
same,Asp^B28 Des-amido insulins formed,[1]; [13],3.1%
same,Di- & polymers formed,[1]; [13],1.0%
same,Asp^B28 Des-amido insulins formed,[1]; [14],3.5%
same,Di- & polymers formed,[1]; [14],1.0%
same,Asp^B28 Des-amido insulins formed,[1]; [15],2.7%
same,Di- & polymers formed,[1]; [15],1.1%
same,Asp^B28 Des-amido insulins formed,[1]; [16],2.9%
same,Di- & polymers formed,[1]; [16],1.0%
same,Asp^B28 Des-amido insulins formed,[1]; [17],3.5%
same,Di- & polymers formed,[1]; [17],1.0%
same,Asp^B28 Des-amido insulins formed,[1]; [18],3.0%
same,Di- & polymers formed,[1]; [18],0.9%
same,Asp^B28 Des-amido insulins formed,[1]; [19],2.8%
same,Di- & polymers formed,[1]; [19],1.1%
same,Asp^B28 Des-amido insulins formed,[1]; [20],3.1%
same,Di- & polymers formed,[1]; [20],0.9%
same,Asp^B28 Des-amido insulins formed,[1]; [21],2.2%
same,Di- & polymers formed,[1]; [21],0.5%
same,Asp^B28 Des-amido insulins formed,[1]; [22],2.0%
same,Di- & polymers formed,[1]; [22],0.5%
same,Di- & polymers formed,"[1]; 12 weeks at 25° C., NaCl added 0 mM, total Cl^- 3.8 mM, phosphate 9 mM",0.4%
same,Asp^B28 Des-amido insulins formed,[1]; [23],1.7%
same,Di- & polymers formed,[1]; [23],0.4%
same,Asp^B28 Des-amido insulins formed,[1]; [24],1.7%
same,Di- & polymers formed,[1]; [24],0.4%
same,Asp^B28 Des-amido insulins formed,[1]; [25],1.8%
same,Di- & polymers formed,[1]; [25],0.4%
same,Asp^B28 Des-amido insulins formed,[1]; [26],1.5%
same,Di- & polymers formed,[1]; [26],0.4%
same,Asp^B28 Des-amido insulins formed,[1]; [27],1.4%
same,Di- & polymers formed,[1]; [27],0.4%
same,Asp^B28 Des-amido insulins formed,[1]; [28],1.5%
same,Di- & polymers formed,[1]; [28],0.4%
same,Asp^B28 Des-amido insulins formed,[1]; [29],1.4%
same,Di- & polymers formed,[1]; [29],0.4%
same,Asp^B28 Des-amido insulins formed,[1]; [30],1.5%
same,Di- & polymers formed,[1]; [30],0.4%
same,Asp^B28 Des-amido insulins formed,[1]; [31],1.5%
same,Di- & polymers formed,[1]; [31],0.4%
same,Asp^B28 Des-amido insulins formed,[1]; [32],1.3%
same,Di- & polymers formed,[1]; [32],0.4%
same,Asp^B28 Des-amido insulins formed,[1]; [33],1.4%
same,Di- & polymers formed,[1]; [33],0.4%
same,Asp^B28 Des-amido insulins formed,[1]; [34],1.6%
same,Di- & polymers formed,[1]; [34],0.4%
same,Asp^B28 Des-amido insulins formed,[1]; [35],1.3%
same,Di- & polymers formed,[1]; [35],0.4%
same,Asp^B28 Des-amido insulins formed,[1]; [36],1.3%
same,Di- & polymers formed,[1]; [36],0.4%
same,Asp^B28 Des-amido insulins formed,[1]; [37],1.4%
same,Di- & polymers formed,[1]; [37],0.4%
same,Asp^B28 Des-amido insulins formed,[2]; [38],6.4%
same,Di- & polymers formed,[2]; [38],1.0%
same,Asp^B28 Des-amido insulins formed,[2]; [39],4.1%
same,Di- & polymers formed,[2]; [39],0.8%
same,Asp^B28 Des-amido insulins formed,[2]; [40],3.7%
same,Di- & polymers formed,[2]; [40],0.8%
same,Asp^B28 Des-amido insulins formed,[2]; [41],7.0%
same,Di- & polymers formed,[2]; [41],1.86%
same,Asp^B28 Des-amido insulins formed,[2]; [42],4.2%
same,Di- & polymers formed,[2]; [42],1.29%
same,Asp^B28 Des-amido insulins formed,[2]; [43],3.5%
same,Di- & polymers formed,[2]; [43],1.07%
